Reference: paper doi:10.1101/2023.10.09.561523 (bioRxiv, 2023)

Biological target: the molecule itself
Test: mass photometry

B1: SH3-domain containing protein 2 (SH3P2), purified full-length protein (natural protein, Arabidopsis thaliana, UniProt Q8VWF1 1-368, looked up)
chain: MDAIRKQASRLREQVARQQQAVFKQFGGGGYGSGLADEAELNQHQKLEKLYISTRAAKHYQRDIVRGVEGYIVTGSKQVEIGTKLSEDSRKYGSENTCTNGNVLTRAALNYGRARAQMEKERGNMLKALGTQVAEPLRAMVLGAPLEDARHLAQRYDRMRQEAEAQATEVARRQAKARESQGNPDILMKLESAEAKLHDLKSNMTILGKEAASALASVEDQQQKLTLERLLSMVESERAYHQRVLQILDQLEGEMVSERQRIEAPSTPSSADSMPPPPSYEEANGVFASQMHDTSTDSMGYFLGEVLFPYHGVTDVELSLSTGEYVVVRKVTGSGWAEGECKGKAGWFPYGYIERRERVLASKVSEVF
  stoichiometry N: 2
